In publication PMC9883448:

Experiments:
Experiment in all cases: FRET or BRET; apparent FRET efficiency by donor (CFP) dequenching after photobleaching of the acceptor (YFP) with 514 nm in a membrane region of whole Xenopus oocytes that co-express the two labelled subunits (cRNAs 1:1)
[1] = target: human mGluR3 FRET sensor subunit (CFP or YFP in the intracellular loop i2, C-terminal tail replaced by a GABAB tail)
[2] = target: human mGluR8 FRET sensor subunit (CFP or YFP in the intracellular loop i2, C-terminal tail replaced by a GABAB tail)
[3] = target: human mGluR4 FRET sensor subunit (CFP or YFP in the intracellular loop i2, C-terminal tail replaced by a GABAB tail)
[4] = target: human mGluR5 FRET sensor subunit (CFP or YFP in the intracellular loop i2, C-terminal tail replaced by a GABAB tail)

| Substance | apparent FRET efficiency (donor dequenching) [1] | apparent FRET efficiency (donor dequenching) [2] | apparent FRET efficiency (donor dequenching) [3] | increase of donor light intensity after photobleaching of the acceptor (FRET efficiency) [4] |
| --- | --- | --- | --- | --- |
| human mGluR2 FRET sensor subunit (CFP or YFP in the intracellular loop i2, C-terminal tail replaced by a GABAB tail) (receptor) | 35% | 35% | 35% | – |
| human mGluR4 FRET sensor subunit (CFP or YFP in the intracellular loop i2, C-terminal tail replaced by a GABAB tail) (receptor) | – | 13% | – | – |
| human mGluR5 FRET sensor subunit (CFP or YFP in the intracellular loop i2, C-terminal tail replaced by a GABAB tail) (receptor) | – | – | – | 23% |
